From patent publication US6585979 come the findings set out here.

The target of assay [1] is rgp120 from breakthrough virus clone C6.5 (herpes simplex virus type 1; HIV-1, breakthrough virus of vaccinee C6). As to the kind of experiment: capture ELISA, MAb at 2 ug/ml.
Assay [2] has as its target rgp120 from breakthrough virus clone C6.1 (herpes simplex virus type 1; HIV-1, breakthrough virus of vaccinee C6). As to the kind of experiment: capture ELISA, MAb at 2 ug/ml. On the technique in general: ELISA stands for enzyme-linked immunosorbent assay.
The target of assay [3] is rgp120 from breakthrough virus clone C10.5 (herpes simplex virus type 1; HIV-1, breakthrough virus of vaccinee C10). As to the kind of experiment: capture ELISA, MAb at 2 ug/ml.
The target in assay [4] is rgp120 from breakthrough virus clone C8.6 (herpes simplex virus type 1; HIV-1, breakthrough virus of vaccinee C8). As to the kind of experiment: capture ELISA, MAb at 2 ug/ml.
In assay [5] the target is rgp120 from breakthrough virus clone C15.3 (herpes simplex virus type 1; HIV-1, breakthrough virus of vaccinee C15). As to the kind of experiment: capture ELISA, MAb at 2 ug/ml.
Assay [6] addresses rgp120 from breakthrough virus clone C17.1 (herpes simplex virus type 1; HIV-1, breakthrough virus of vaccinee C17). As to the kind of experiment: capture ELISA, MAb at 2 ug/ml.
Assay [7] has as its target rgp120 from breakthrough virus clone C17.3 (herpes simplex virus type 1; HIV-1, breakthrough virus of vaccinee C17). As to the kind of experiment: capture ELISA, MAb at 2 ug/ml.
Assay [8] addresses rgp120 from breakthrough virus clone C15.2 (herpes simplex virus type 1; HIV-1, breakthrough virus of vaccinee C15). As to the kind of experiment: capture ELISA, MAb at 2 ug/ml.
The target in assay [9] is rgp120 from breakthrough virus clone C11.7 (herpes simplex virus type 1; HIV-1, breakthrough virus of vaccinee C11). As to the kind of experiment: capture ELISA, MAb at 2 ug/ml.
In assay [10] the target is rgp120 from breakthrough virus clone C8.3 (herpes simplex virus type 1; HIV-1, breakthrough virus of vaccinee C8). As to the kind of experiment: capture ELISA, MAb at 2 ug/ml.
Assay [11] concerns the target rgp120 from breakthrough virus clone C11.5 (herpes simplex virus type 1; HIV-1, breakthrough virus of vaccinee C11). As to the kind of experiment: capture ELISA, MAb at 2 ug/ml.
Assay [12] deals with rgp120 from breakthrough virus clone C10.7 (herpes simplex virus type 1; HIV-1, breakthrough virus of vaccinee C10). As to the kind of experiment: capture ELISA, MAb at 2 ug/ml.
The target in assay [13] is rgp120 from breakthrough virus clone C7.2 (herpes simplex virus type 1; HIV-1, breakthrough virus of vaccinee C7). As to the kind of experiment: capture ELISA, MAb at 2 ug/ml.
Assay [14] deals with MN-rgp120 (herpes simplex virus type 1; HIV-1, MN strain). As to the kind of experiment: capture ELISA, MAb at 2 ug/ml (reference).
For assay [15] the target is unchanged. As to the kind of experiment: capture ELISA (FIG. 5C).

Take MAb 50.1 (antibody): the relative reactivity (OD ratio to MN-rgp120) in [1] was 0.33; in assay [2] it was 0.37; in [3], 0.4; in [4], 0.34; in assay [5], 0.37; in assay [6], 0.52. Also, the relative reactivity (OD ratio to MN-rgp120) in assay [7] is 0.56; in assay [8], 0.47; in assay [9] it was 0; in assay [10], 0.37; in assay [11] it was 0; in assay [12], 0.48. Moreover, the relative reactivity (OD ratio to MN-rgp120) amounted to 0.6 in assay [13] and 1 in assay [14]. Moreover, the fold greater binding than to any of the breakthrough virus envelope proteins in [15] was found to be 10 fold.

Regarding MAb 15e (antibody), the relative reactivity (OD ratio to MN-rgp120) in assay [1] is 0.75; in [2], 0.17; in [3] it was 0.46; in [4], 0.29; in [5] it was 0.63; in assay [6], 0.33. Also, the relative reactivity (OD ratio to MN-rgp120) in assay [7] was found to be 0.33; in assay [8], 0.92; in assay [9], 0.17; in [10] it was 0.38; in assay [11], 0.17; in assay [12] it was 0.5. Also, the relative reactivity (OD ratio to MN-rgp120) in [13] was found to be 0.71; in assay [14], 1.
